Experimental data taken from patent publication US20260049134A1 (UNIVERSITY OF FLORIDA RESEARCH FOUNDATION, published 2026).

T1: IL13RA1
T1 construct: coated protein in the ELISA; also called IL13RA1-Fc-His (R&D Systems)
T1 chain: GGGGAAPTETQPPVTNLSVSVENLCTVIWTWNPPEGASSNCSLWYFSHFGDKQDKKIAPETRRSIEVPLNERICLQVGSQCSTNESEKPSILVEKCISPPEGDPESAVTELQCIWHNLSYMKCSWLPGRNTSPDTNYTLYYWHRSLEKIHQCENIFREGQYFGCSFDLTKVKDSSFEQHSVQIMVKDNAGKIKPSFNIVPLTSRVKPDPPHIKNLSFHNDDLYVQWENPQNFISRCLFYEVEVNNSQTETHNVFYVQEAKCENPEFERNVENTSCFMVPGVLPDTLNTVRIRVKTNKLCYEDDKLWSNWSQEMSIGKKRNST


Tests used:
IL13RA1 = molecular target: T1, IL13RA1; assay: ELISA on coated IL13RA1-Fc-His
Experimental: Recombinant purified ECDs (50-150 ng) of each putative target protein were coated, incubated with 150 ng of the indicated primary antibody, and binding was detected using a peroxidase-conjugated anti-human Fab secondary antibody. Heatmap represents averages of technical triplicates. (8B) Target validation via siRNA knockdown. H929 cells were transfected with siRNA pools targeting the putative antibody targets ICAM1, CADM1, and PTPRG. Cells were then subjected to cognate IgG binding analysis via flow cytometry. (NT, non-targeting siRNA).
ELISA ELISA was conducted as described previously. Briefly, 50-150 ng of antigen was coated overnight in half-area 96-well plates at 4° C., blocked with 3% BSA at 37° C. for 1 h, and 150 ng of chimeric rabbit/human IgG1 was added, incubating for 2 h at 37° C. […] After incubating at 37° C. for 15 min-1 h (depending on intensity of controls), data were acquired using a SpectraMax M5 plate reader (Molecular Devices).

[1] = molecular target: T2, PTPRG, endogenous in H929 multiple myeloma cells (human, UniProt P23470 20-1445); assay: flow cytometry, H929 + vehicle; None 513
T2 construct: Native protein on H929 cells (flow cytometry, siRNA knockdown) and in H929 lysates (IP/MS); also called phosphatase receptor type γ

[2] = molecular target: T2, PTPRG, endogenous in H929 multiple …; assay: flow cytometry, IgG1 on H929 cells
Experimental: Staining protocol. Cells were harvested (5×10⁴ cells per sample), washed once with phosphate-buffered saline (PBS) at RT, and a second time with ice-cold FACS buffer (PBS, 0.5% BSA, 2 mM EDTA, 0.1% NaN₃). Cells were stained in 50 μL of primary antibody for 30 min on ice, washed twice with 100 μL FACS buffer, stained with 50 μL of diluted secondary antibody, washed two more times in FACS, and then resuspended in 50 μL FACS buffer. Samples were acquired on an Accuri C6 Plus or a BD FACSCanto II flow cytometer (both from BD Biosciences). Data were analyzed using FlowJo version 10 software. Primary antibodies: Fab (10 μg/mL), IgG1 (0.1 to 50 μg/mL), or 25 μL polyclonal Fabs from periplasmic extracts. Polyclonal Fabs were produced by diluting bacterial stocks by a factor of 100 in autoinduction media and incubating overnight to induce expression as previously described. […] Viability stains: DAPI (Cell Signaling Technology) or SYTOX AADvanced Dead Cell Stain (Thermo Fisher Scientific). Labeling: The panel of chimeric rabbit/human IgG1s was labeled using the Alexa Fluor 647 Labeling Kit (Thermo Fisher Scientific, #A20173) to facilitate single-step staining. Competition: Unlabeled IgG1s were added at saturating concentrations of 60 μg/mL to block the target receptors, incubating on ice for 30 min, followed by the addition of an equal volume of the Alexa Fluor 647 labeled antibody at 2 μg/mL, and the mixture was incubated on ice for another 30 min.

T2 sequence (P23470 20-1445 limits assumed): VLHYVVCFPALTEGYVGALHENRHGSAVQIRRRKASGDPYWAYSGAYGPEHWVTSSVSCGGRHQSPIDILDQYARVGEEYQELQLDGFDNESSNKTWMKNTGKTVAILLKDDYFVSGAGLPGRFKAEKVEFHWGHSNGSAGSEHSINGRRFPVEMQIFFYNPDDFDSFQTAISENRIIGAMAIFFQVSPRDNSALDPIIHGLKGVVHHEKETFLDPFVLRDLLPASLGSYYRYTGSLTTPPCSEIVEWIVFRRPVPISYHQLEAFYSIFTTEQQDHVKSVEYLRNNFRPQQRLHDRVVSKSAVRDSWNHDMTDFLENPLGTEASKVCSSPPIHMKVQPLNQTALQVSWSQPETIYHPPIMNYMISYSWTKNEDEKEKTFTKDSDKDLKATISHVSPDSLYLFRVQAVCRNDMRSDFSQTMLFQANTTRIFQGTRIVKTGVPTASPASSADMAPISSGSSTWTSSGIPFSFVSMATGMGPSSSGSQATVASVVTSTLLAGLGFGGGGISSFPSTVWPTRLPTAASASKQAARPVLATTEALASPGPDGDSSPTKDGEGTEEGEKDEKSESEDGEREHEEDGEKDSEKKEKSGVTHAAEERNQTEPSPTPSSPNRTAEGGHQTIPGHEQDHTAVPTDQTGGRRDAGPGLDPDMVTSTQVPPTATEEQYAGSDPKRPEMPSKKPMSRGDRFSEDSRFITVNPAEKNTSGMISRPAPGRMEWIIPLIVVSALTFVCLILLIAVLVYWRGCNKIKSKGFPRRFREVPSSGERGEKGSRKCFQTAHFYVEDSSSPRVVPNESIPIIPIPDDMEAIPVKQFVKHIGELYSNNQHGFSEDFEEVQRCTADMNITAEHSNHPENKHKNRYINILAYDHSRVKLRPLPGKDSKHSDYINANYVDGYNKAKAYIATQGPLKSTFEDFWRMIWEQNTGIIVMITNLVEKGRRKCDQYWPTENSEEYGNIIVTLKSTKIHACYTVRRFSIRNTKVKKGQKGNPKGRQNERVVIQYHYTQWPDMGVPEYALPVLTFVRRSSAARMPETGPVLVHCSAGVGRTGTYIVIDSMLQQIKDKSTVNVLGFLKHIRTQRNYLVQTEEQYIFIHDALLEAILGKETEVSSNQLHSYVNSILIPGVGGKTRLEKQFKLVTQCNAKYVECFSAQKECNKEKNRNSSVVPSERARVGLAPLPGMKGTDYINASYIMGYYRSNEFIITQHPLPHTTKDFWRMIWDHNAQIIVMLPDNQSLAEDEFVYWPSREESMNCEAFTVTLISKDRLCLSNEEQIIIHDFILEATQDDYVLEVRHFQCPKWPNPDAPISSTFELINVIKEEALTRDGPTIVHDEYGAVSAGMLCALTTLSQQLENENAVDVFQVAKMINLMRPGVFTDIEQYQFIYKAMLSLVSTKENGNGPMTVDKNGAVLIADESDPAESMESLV

| mAb binding (MFI) [1] | antibody-bound positive cells (%) [2] [%] | Binder | binding result (IL13RA1) |
| --- | --- | --- | --- |
| 8320 | 99.8 | HW-42 chimeric rabbit-human IgG1 LA/LA/PG (antibody, V domains shown, Fc-silenced (L234A/L235A/P329G) IgG1, lambda; Alexa Fluor 647-labeled in single-step flow cytometry; Cluster C-1) VH: QSVKESEGGLFKPADTLTLTCTVSGFSLSSNEISWVRQAPGEGLEYIGIIDTGGRAYYAVWARSRSTITRNTNLNTVTLKMTSLTAADTATYFCARGGVDTEWYAFSSWGPGTLVTVPS VL: SFVLTQPASVQVNLGQTVSLTCTADTLSRRYASWYQQKPGQAPVLLIFRDTSRPSGVPDRFSGSSSGDTATLTISGAQAGDEADYYCATSDGSGSNYQYVFGGGTQLTVTG | no binding (tested: 150 ng IgG1 per well) |
| 12300 | 99.8 | HW-70 chimeric rabbit-human IgG1 LA/LA/PG (antibody, V domains shown, Fc-silenced (L234A/L235A/P329G) IgG1, lambda; Alexa Fluor 647-labeled in single-step flow cytometry; Cluster C-1) VH: QSLEESGGRLVTPGTPLTLTCTVSGFSLSSNAMSWVRQAPGKGLEWIGTIDGYGYTYYASWAKGRFTVSKTSTTVDLKITSPTTEDTATYFCAREIYLGSNFWGPGTLVTISS VL: SFVLTQPASVQVNLGQTVSLTCTADTLSRRYASWYQQKPGQAPVLLIYRDTSRPSGVPDRFSGSSSGNTATLTISGAQAGDEADYYCATADGSGSSYQFVFGGGTQLTVTG | no binding (tested: 150 ng IgG1 per well) |
|  |  | HW-101 chimeric rabbit-human IgG1 LA/LA/PG (antibody, V domains shown, Fc-silenced (L234A/L235A/P329G) IgG1, lambda; Alexa Fluor 647-labeled in single-step flow cytometry; Cluster C-97) VH: QEQLVESGGRLVTPGTPLTLTCKASGFSLGKYDMSWVRQAPGKGLEWIGTIYAGSGSTWYASWAKGRFTISKTSTTVDLKMTSLTTEDTATYFCARDFLGVNSIWGPGTLVTISS VL: SFVLTQPASVQVNLGQTVSLTCTADTLSRSYASWYQQKPDQAPVLLIHRDTSRPSGVPDRFSGSNSGNTATLTISGAQAGDEADYYCATSDGSGSNFHFVFGGGTQLTVTG | no binding (tested: 150 ng IgG1 per well) |
| 15000 | 100 | HW-1 chimeric rabbit-human IgG1 LA/LA/PG (antibody, V domains shown, Fc-silenced (L234A/L235A/P329G) IgG1, lambda; Alexa Fluor 647-labeled in single-step flow cytometry; Prototype of cluster C-1) VH: QSLEESGGGLFKPTDTLTLTCTASGFSLGSSYAISWVRQAPGKELEWIGTIDSGRAYYARWAKSRSTITRNTNENTVTLKMTSLTAADTATYFCARDLIPTYSQDIWGPGTLVTISS VL: SFVLTQPASVQVNLGQTVSLTCTADTLSRRYASWYQQKPGQAPVLLIYRDTSRPSGVPDRFSGSSSGNTATLTISGAQAGDEADYYCATSDGSGNSYQYVFGGGTQLTVTS | no binding (tested: 150 ng IgG1 per well) |
| 15700 | 100 | HW-17 chimeric rabbit-human IgG1 LA/LA/PG (antibody, V domains shown, Fc-silenced (L234A/L235A/P329G) IgG1, lambda; Alexa Fluor 647-labeled in single-step flow cytometry; Cluster C-1) VH: QSLGESRGRLVTPDETLTLTCTVSGIDLSSNAMSWVRQAPGEGLEWIGTINTGGRAYYASWAKGRFTISRTSTTVDLKMTSLTTEDTATYFCARERYSDGRAYDIWGPGTLVTISS VL: SFVLTQPASVQVNLGQTVSLTCTADTLSRRYASWYQQKPGQAPVLLIYTDSNRPSGIPDRFSGSSSGNTATLTISGAQAGDEADYYCATDDGSGSIYQYVFGGGTQLTVTG | no binding (tested: 150 ng IgG1 per well) |
|  |  | HW-97 chimeric rabbit-human IgG1 LA/LA/PG (antibody, V domains shown, Fc-silenced (L234A/L235A/P329G) IgG1, lambda; Alexa Fluor 647-labeled in single-step flow cytometry; Prototype of cluster C-97) VH: QKQLVESGGRLVTPGTPLTLTCTVTGIDLSSHGMSWVRQAPGKGLEWIGVIYPSGSTWYASWARGRFTISKTSTTVDLKMTSLTTEDTATHFCARGDVGGADNNIWGPGTLVTVSS VL: SFVLTQPASVQVDLGQTVSLTCTAETLSRSYASWYQQKPGQAPVLLIYRDTSRPSGVPDRFSGSSSGNTATLTISGAQAGDEADYYCATSDGSGSSYQYVFGGGTQLTVTG | no binding (tested: 150 ng IgG1 per well) |
|  |  | HW-113 chimeric rabbit-human IgG1 LA/LA/PG (antibody, V domains shown, Fc-silenced (L234A/L235A/P329G) IgG1, lambda; Alexa Fluor 647-labeled in single-step flow cytometry) VH: QKQLVESGGGLVQPGGSLTLTCTVSGFSLNKYYMGWFRQAPGKGLEWIGVISRSGDTYYSSWAKGRFTISKASTTVDLRITSPTTEDTATYFCARDASSPGFHGDRLDLWGQGTLVTVSS VL: SFVLTQPASVQVNLGQTVSLTCTADTLSRSYASWYQQKPGQAPVLLIYRDTSRPSGVPDRFSGSSSGNTATLTISGAQAGDEADYYCATSDGIGSNYLWVFGGGTQLTVTG | no binding (tested: 150 ng IgG1 per well) |
| 7560 | 99.6 | HW-25 chimeric rabbit-human IgG1 LA/LA/PG (antibody, V domains shown, Fc-silenced (L234A/L235A/P329G) IgG1, lambda; Alexa Fluor 647-labeled in single-step flow cytometry; Cluster C-1) VH: QSLEESGGRLVTPGTPLTLTCTVSGFSLSSYAMGWVRQAPGKGLEWIGIIDSRGSTYYATWAKGRFTISKTSTTVDLKITSPTTEDTATYFCAREDSYYYDSFNLWGPGTLVTVSS VL: SFVLTQPASVQVNLGQTVSLTCTADTLSRRYASWYQQKPGQAPVLLIYRDTSRPSGVPDRFSGSSSGNTATLTISGAQAGDEADYYCATSDGSGSSYQCVFGGGTQLTVTG | no binding (tested: 150 ng IgG1 per well) |
| 595 |  | TH9-0022 (antibody, human IgG1, kappa, L234A L235A, V domains shown, also called TH9-022; negative control) VH: QSLEESGGRLVTPGTPLTLTCTVSGFSLSSYAMNWVRQAPGKGLEWIGIINSYGSTYYASWAKGRFTISKTSTTVDLKITSPTTEDTATYFCARVTYDSYGYGYAPYGMDLWGPGTLVTVSS VL: LVMTQTPSSTSNAVGGTVTIKCQASQSIGNVLAWYQQKPGQPPKLLIYAASTLASGVPSRVGGSRSGTEYTLTISGVQREDAATYYCLGSDSDSDIAFGGGTELEILR | no binding (tested: 150 ng IgG1 per well) |
|  | 2.7 | TH9-0022 (antibody, human IgG1, kappa, L234A L235A, V domains shown, also called TH9-022; negative control IgG1) VH: QSLEESGGRLVTPGTPLTLTCTVSGFSLSSYAMNWVRQAPGKGLEWIGIINSYGSTYYASWAKGRFTISKTSTTVDLKITSPTTEDTATYFCARVTYDSYGYGYAPYGMDLWGPGTLVTVSS VL: LVMTQTPSSTSNAVGGTVTIKCQASQSIGNVLAWYQQKPGQPPKLLIYAASTLASGVPSRVGGSRSGTEYTLTISGVQREDAATYYCLGSDSDSDIAFGGGTELEILR |  |
